Source: article PMC8200818, “SPECT/CT Imaging, Biodistribution and Radiation Dosimetry of a ^177Lu-DOTA-Integrin αvβ6 Cystine Knot Peptide in a Pancreatic Cancer Xenograft Model” (Frontiers in Oncology, 2021)
“Also recorded” adds a separate entry of the source.

What was measured:
[1] = molecular target: T1, integrin αvβ6 (BxPC-3 cells) (Homo sapiens, UniProt P06756+P18564); assay: Competition binding assay, BxPC-3
T1 construct: endogenous in cells; host or cells: BxPC-3 (whole adherent cells)
Protocol: The reaction volume was made up to 30 µl with water. The reaction was carried out for 10 minutes at 80°C.
For competitive radioligand binding assay, approximately 50,000 cells (BxPC-3 or Capan-2) per well were seeded in a 96 well plate incubated overnight at 37°C. […] After 2 hours of incubation, cells were washed for 2-3 times with ice-cold washing buffer (50 mM Tris-HCl, pH 7.4, 125 mM NaCl, 0.05% BSA) and lysed with 1 N NaOH (80 µl/well). The lysed cells were transferred to vials and measured in a gamma counter (Wallac 1470 Wizard, Perkin Elmer, Waltham, MA, USA). Obtained cpm values were plotted with GraphPad Prism and the data fitted using nonlinear regression (one site - fit Ki, one site - fit logIC50).
All statistical analyses were performed using GraphPad Prism 5.04. IC50 values were determined by nonlinear sigmoidal curve fitting with variable slope setting. All presented data are based on independent experiments. Numerical data for this study have been deposited in an open data repository for public access: http://doi.org/10.5281/zenodo.4362503.

[2] = in vivo; conditions: female, NMRI-Foxn1^nu/Foxn1^nu (athymic nude), mouse, iv, 1 MBq, total radioactivity; for tissue uptake at 24 h: 24 h p.i.; for tissue uptake at 24 h / tissue uptake at 48 h / tissue uptake at 72 h / tissue uptake at 192 h: nude mice, Capan-2 xenografts, mean ± SD (4 ≤ n ≤ 5); for tissue uptake at 48 h: 48 h p.i.; for tissue uptake at 72 h: 72 h p.i.; for tissue uptake at 192 h: 192 h p.i.
Excerpt: For in vivo experiments, at least 8-week-old female athymic NMRI-Foxn1^nu/Foxn1^nu mice (Janvier Labs, Saint-Berthevin, France) were used. Animal care followed institutional guidelines and all experiments were approved by local animal research authorities. For the generation of tumor xenografts, 5 x 10^6 cells of Capan-2 cells were inoculated subcutaneously into the left and right shoulder (1:1 phosphate-buffered saline [PBS]/Matrigel Basement Membrane Matrix High Concentration, Corning, Corning, USA). Tumors were allowed to grow for two to four weeks (tumor volume > 100 mm^3) after cell inoculation.
Radiolabeling of the DOTA-integrin αvβ6 knottin was carried out manually using [^177Lu]LuCl3 and a reagent kit from ITG Isotope Technologies Garching GmbH (Garching, Germany). A total of 40 µL (stock solution of peptide at 1 µg/µL in 10% DMSO in water) was added to 500 µL of ascorbate buffer solution pH 5.0, prepared from the kit (composition not disclosed by vendor) and the resulting mixture was then added to 35 µL of [^177Lu]LuCl3 (2 GBq in aqueous 0.04 M HCl) and the reaction mixture was heated at 80 °C for 35 minutes followed by cooling for 10 minutes at room temperature. The product was then diluted with 0.5 mL of saline and the pH was adjusted to 7 using a 1 M aqueous solution of NaHCO3 prior to injection in mice. A reverse-phase HPLC system (Knauer GmbH, Germany) with a column (Eurospher II, C18, 250 × 4 mm) was used to determine the radiochemical purity of the radiotracer. The HPLC system was equipped with an Azura P.6.1L pump coupled with ultraviolet (Azura UVD 2.1L) and radiometric (γ-Raytest-Isotopenmessgeraete GmbH, Germany) detectors. The gradient elution system used mobile phase A (100% acetonitrile) and mobile phase B (deionized H2O containing 0.1% trifluoroacetic acid) and a flow rate of 1.0 mL/min. Starting with 0% A and 100% B, the gradient was increased to 100% A over 25 min and finally returned to initial gradient conditions within 5 min.
Tumor-bearing mice (n=4-5 per time point) were injected with approximately 1 MBq (22 pmol) of ^177Lu-DOTA-integrin αvβ6 knottin to the tail vein via a catheter. Mice (n=4-5 per time point) were sacrificed and dissected one, two, three and eight days post injection. Tumor, blood, stomach, pancreas, small intestine, colon, liver, spleen, kidney, heart, lung, muscle and femur samples were weighed and uptake of radioactivity was measured by a gamma counter.

[3] = colon, Colon uptake, ~1 MBq i.v.
[4] = liver, Liver uptake, ~1 MBq i.v.
[5] = small intestine, Small intestine uptake, ~1 MBq i.v.
[6] = spleen, Spleen uptake, ~1 MBq i.v.
[7] = tail, Tail activity, ~1 MBq i.v.
[8] = tumor, Tumor uptake, ~1 MBq (22 pmol) i.v.

T1 sequence (P06756 31-889 limits assumed): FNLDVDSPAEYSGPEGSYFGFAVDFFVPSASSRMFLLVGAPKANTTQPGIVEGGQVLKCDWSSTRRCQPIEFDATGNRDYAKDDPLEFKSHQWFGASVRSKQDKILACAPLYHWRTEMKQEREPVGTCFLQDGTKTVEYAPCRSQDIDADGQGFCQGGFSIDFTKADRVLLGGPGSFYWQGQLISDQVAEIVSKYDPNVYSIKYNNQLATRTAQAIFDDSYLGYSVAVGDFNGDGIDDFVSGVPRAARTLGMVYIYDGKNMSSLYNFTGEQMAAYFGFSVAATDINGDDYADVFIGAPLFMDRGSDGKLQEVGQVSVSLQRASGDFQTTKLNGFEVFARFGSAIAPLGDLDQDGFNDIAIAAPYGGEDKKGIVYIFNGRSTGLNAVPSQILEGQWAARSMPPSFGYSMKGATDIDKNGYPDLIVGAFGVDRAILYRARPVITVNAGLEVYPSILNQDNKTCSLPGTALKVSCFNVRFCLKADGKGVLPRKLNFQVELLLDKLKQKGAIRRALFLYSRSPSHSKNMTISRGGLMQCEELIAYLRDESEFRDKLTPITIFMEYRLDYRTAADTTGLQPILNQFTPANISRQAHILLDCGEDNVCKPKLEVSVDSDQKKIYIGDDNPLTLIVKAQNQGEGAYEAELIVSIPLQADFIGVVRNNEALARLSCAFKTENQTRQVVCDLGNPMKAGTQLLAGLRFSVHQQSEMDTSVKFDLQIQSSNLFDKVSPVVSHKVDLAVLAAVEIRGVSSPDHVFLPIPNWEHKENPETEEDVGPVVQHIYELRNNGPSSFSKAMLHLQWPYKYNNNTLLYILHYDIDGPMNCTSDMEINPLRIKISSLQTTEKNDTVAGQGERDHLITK
T1 sequence (P06756 891-1048 partner limits assumed): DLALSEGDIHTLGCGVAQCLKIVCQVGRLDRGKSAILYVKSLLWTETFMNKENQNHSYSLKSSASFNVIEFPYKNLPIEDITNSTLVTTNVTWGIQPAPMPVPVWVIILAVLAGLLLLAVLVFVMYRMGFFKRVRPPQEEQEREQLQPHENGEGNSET
T1 sequence (P18564 22-788): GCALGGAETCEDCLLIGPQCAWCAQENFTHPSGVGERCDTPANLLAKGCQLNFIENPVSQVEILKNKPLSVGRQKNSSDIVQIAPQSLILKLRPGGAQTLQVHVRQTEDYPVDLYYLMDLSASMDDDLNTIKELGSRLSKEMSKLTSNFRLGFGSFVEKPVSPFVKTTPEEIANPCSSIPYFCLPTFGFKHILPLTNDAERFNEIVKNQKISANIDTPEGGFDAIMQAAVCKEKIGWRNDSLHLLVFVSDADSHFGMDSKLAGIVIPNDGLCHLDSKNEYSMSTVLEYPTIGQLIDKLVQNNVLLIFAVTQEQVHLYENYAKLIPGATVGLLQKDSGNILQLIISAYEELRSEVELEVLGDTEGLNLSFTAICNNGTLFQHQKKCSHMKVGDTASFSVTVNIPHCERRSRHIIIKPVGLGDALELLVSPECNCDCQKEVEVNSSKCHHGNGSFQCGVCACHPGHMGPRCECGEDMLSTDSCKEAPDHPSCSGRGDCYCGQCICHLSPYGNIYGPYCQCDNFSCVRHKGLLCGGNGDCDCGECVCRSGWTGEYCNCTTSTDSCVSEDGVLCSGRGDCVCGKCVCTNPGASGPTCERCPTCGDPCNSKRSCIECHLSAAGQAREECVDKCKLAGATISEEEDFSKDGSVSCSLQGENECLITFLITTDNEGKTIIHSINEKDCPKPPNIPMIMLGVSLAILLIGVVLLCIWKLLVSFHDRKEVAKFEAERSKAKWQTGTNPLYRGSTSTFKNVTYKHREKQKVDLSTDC

## CC[C@H](C)[C@@H]1NC(=O)[C@@H](NC(=O)CNC(=O)CN2CCN(CC(=O)O)CCN(CC(=O)O)CCN(CC(=O)O)CC2)CSSC[C@@H]2NC(=O)[C@H](C)NC(=O)CNC(=O)[C@@H]3CCCN3C(=O)[C@@H]3CSSC[C@@H](C(=O)NCC(=O)O)NC(=O)[C@H](Cc4ccc(O)cc4)NC(=O)CNC(=O)[C@H](CC(N)=O)NC(=O)CNC(=O)[C@H](CCCNC(=N)N)NC(=O)[C@H](CSSC[C@H](NC(=O)[C@H](CCCNC(=N)N)NC(=O)[C@H](Cc4ccccc4)NC(=O)[C@H](CC(C)C)NC(=O)[C@H](CC(C)C)NC(=O)[C@H]([C@@H](C)O)NC(=O)CNC(=O)[C@H](CC(C)C)NC(=O)[C@H](CC(=O)O)NC(=O)[C@H]([C@@H](C)O)NC(=O)[C@H](CCCNC(=N)N)NC(=O)CNC(=O)[C@H](CC(N)=O)NC(=O)[C@H](CC(C)C)NC1=O)C(=O)N[C@@H](CCCNC(=N)N)C(=O)N[C@@H](CCCNC(=N)N)C(=O)N[C@@H](CC(=O)O)C(=O)N[C@@H](CO)C(=O)N[C@@H](CC(=O)O)C(=O)N3)NC(=O)[C@H]([C@@H](C)CC)NC2=O [^177Lu-DOTA-integrin αvβ6 knottin, metal not drawn]
[1]
  Binding affinity of the ^177Lu tracer: low single-digit nanomolar range; also recorded: high affinity and specific binding to target-positive cells and tumors
[2]; [3]
  tissue uptake at 24 h: 1.37 %ID/g
  tissue uptake at 48 h: 0.56 %ID/g
  tissue uptake at 72 h: 0.43 %ID/g
  tissue uptake at 192 h: 0.04 %ID/g
[2]; [4]
  tissue uptake at 24 h: 0.24 %ID/g
  tissue uptake at 48 h: 0.18 %ID/g
  tissue uptake at 72 h: 0.2 %ID/g
  tissue uptake at 192 h: 0.08 %ID/g
[2]; [5]
  tissue uptake at 24 h: 0.76 %ID/g
  tissue uptake at 48 h: 0.35 %ID/g
  tissue uptake at 72 h: 0.27 %ID/g
  tissue uptake at 192 h: 0.02 %ID/g
[2]; [6]
  tissue uptake at 24 h: 0.06 %ID/g
  tissue uptake at 48 h: 0.07 %ID/g
  tissue uptake at 72 h: 0.18 %ID/g
[2]; [7]
  tissue uptake at 72 h: 0.16 %ID/g
  tissue uptake at 192 h: 0.08 %ID/g
[2]; [8]
  tissue uptake at 48 h: 2.45 %ID/g
  tissue uptake at 72 h: 3.46 %ID/g
  tissue uptake at 192 h: 1.16 %ID/g
[2]; tumor/blood
  Kp at 24 h: 498
  Kp at 48 h: 851
  Kp at 72 h: 697
  Kp at 192 h: 2120
[2]; tumor/kidney
  tissue to tissue ratio at 24 h: 0.17
  tissue to tissue ratio at 48 h: 0.19
  tissue to tissue ratio at 72 h: 0.24
  tissue to tissue ratio at 192 h: 0.51
[2]; tumor/liver
  tissue to tissue ratio at 24 h: 13
  tissue to tissue ratio at 48 h: 13.6
  tissue to tissue ratio at 72 h: 18.4
  tissue to tissue ratio at 192 h: 14.6
[2]; tumor/muscle
  tissue to tissue ratio at 24 h: 13.1
  tissue to tissue ratio at 48 h: 23.1
  tissue to tissue ratio at 72 h: 35.8
  tissue to tissue ratio at 192 h: 32.9
[2]; tumor/pancreas
  tissue to tissue ratio at 24 h: 13.1
  tissue to tissue ratio at 48 h: 15.6
  tissue to tissue ratio at 72 h: 27
  tissue to tissue ratio at 192 h: 38.7
